Data as given in the nanobody polyreactivity screen of Harvey et al. (2022).

Assay: yeast display, Sf9 membrane polyspecificity reagent, FACS + sequencing; frameworks hold sequencing errors
Summary of the method: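 Nanobodies from a synthetic yeast display library (Saccharomyces cerevisiae BJ5465), induced 36–48 hours with galactose, were stained 1 hour at 4 °C with 10% biotinylated, detergent-solubilized Sf9 membrane reagent, enriched on streptavidin microbeads, then FACS-sorted. Anti-HA (expression) and streptavidin (reagent binding) fluorescence set low and high (top ~1%) gates. Polyreactivity labels come from the gate of origin. Genes were colony-PCR amplified, MiSeq 2 × 250 sequenced and filtered by CDR length.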

Sequence | polyreactivity (PSR sort gate)
QVQLVESGGGLVQAGGSLRLSCAASGSTFLYYAMGWYRQEPGKERELVAAINWNGGSTYYADSVKGRFTISRDNAKNTVYLQMNSLKPEDTAVYYCNAYGISPYEYYYWGQGTQVTVSS | low polyreactivity
QVQLVESGGGIVQAGGSLRLSWAASGSIFDKYAMGWYRQAHGKERELVAAIDSGDTYYADSVKGRFTISRDNAKNPVYFQMNSLKPEDTAVYYWAADDVQYEYDYWGQGTQVSVSS | low polyreactivity
QVQLVESGGGLVQAGGSLRLSCAASGLIFVRYAMGWYRQAPGKERELVATITWSGGTTYADSVKGRFTISRDNAKNTVYLQMNSLKPEDTAVYYCAVEWPAWTDSDYPVGGHAFGYWGQGTQVTVSS | low polyreactivity
QVQLVESGGGLVQAGGSLRLSCAASGSIFPYVNAMGWYRQAPGKERELVASIPGGGGTKYADSVKGRFTISRDNAKNTVYLQMNSLKPEDTAVYYCNATSGNPASTARMNYWGQGTQVTVSS | low polyreactivity
QVQLVESGGGLVQAGGSLRLSCAASGSISNFYAMGWYRQAPGKEREFVAAISTRDGTKRFADSVKGRFTISRDNAKNTVYLQMNSLKPEDTAVYYCAAKGGGVWLYARIYSDYYWGQGTQVTVSS | low polyreactivity
QVQLVESGGGLVQAGGSLRLSCAASGFTFGAYAMGWYRQAPGTERELVAAISYRGGRTYYADSVKGRFTISRDNAKNTVYLQMNSLKPEDTAVYYGNTVYLVTWRVKGYYWGQGTQVTVSS | low polyreactivity
QVQLVESGGGLVQAGGSLRLSCAASGLIFIAYAMGWYRQAPGKDRELVAAISSGGSTYADSVKRRFTISRDNAKNTVYLQMNSLKPEETAVYYCNADSWSGTTYFNFNYWGQGTQVTVSS | low polyreactivity
QVQLVESVGGLVQAGGSLRLSCASSVRTFYRYAMGWYRQAPGKERELVAAISRGGRTNYADSVKGRFTISRDNAKNTVYLQMNSLKPEDTAVYYCAVSNYGALYDYWGQGTQVSVSS | high polyreactivity
QVQLVESGGGIVQAGGSLRLSCAASGNTFGYYAMGWYRPAPGKERELVASISYSGGSTYADSVKGRFTISRDNAKNTVYLQMNSLKPEDTAVYYCAADYWIYAADSWVLYDSWGQGTQVTVSS | low polyreactivity
QVQLVESGGGLVQAGGSLRLSCAASGSIFKPYAMGWYRQAPGKERELVAAISSSGGSTYYADSVKGRFTISRDNAKNTVYFQMNSLKPEDTAVYYCNADWYYAGYGYWGQGTQVTVSS | low polyreactivity
QVQLVESGGGLVQAGGSLRLSFAASGSTFGLNAMGWYRQAPGKERELVAAITRSDITNYADSVKGRFTISRDNAKNTVYLQMNSLKPEDTAVYYCNKTPDRHRRYFGYGYWGQGTQVTVSS | low polyreactivity
QVQLVESGGGLVQAGGSLRLSCAASGSTFVWYGMGWYRQAPGKEREFVAAISTSGGRTYYADSVKGRFTISRDNAKNTVYLQMNSLKPEDTAVYYCATRPYFTYRWYDYWGQGTQVTVSS | high polyreactivity
QVQLGESGGGLVQAGGSLRLSCAASGGIFDIYAMGWYRQAPGKERELVAAIRGSGGRTYYADSVKGRFTISRDNAKNSLYLQMNSLKPEDTAVYYCAARPSIVTGLRYGYWGQGTQVTVSS | high polyreactivity
QVQLVESWGGLVQAGGSLRLSCAASGFTFFYYDMGWYRQAPGKERQLVAAITWRGGRTYYADSVKGRFTISRDNAKNTVYLQMNSLKPEDTAVYYCNAYWGYAKVGQFDYWGQGTQVTVSS | high polyreactivity
QVQLEESGGGLDQAGGSLRLSCAASGNIFYGNAMGWYIQAAGKERALVARISGTGRTNYADSVKGRFTISRDNAKNTVYLQMNSLKPEDTAVYYCAKYGYRSRYGYDYWGQGTQVTVTS | high polyreactivity
QVQLVESGGGLVQAGGSLRLSCAASGRTFQSNARGRARQAPGKETELVATISSDGSTYYADSVKGRFTISRDNAKNTVYLQMNSLKPEDTAVYYCAADSHPASTIGVRLDSWGQGTQVTVSS | low polyreactivity
QVQLVESGGGLFQAGGSLRLSCAASGRIFYYNTMGWYRQAPGIERELVAGISTRGGRTYYADSVKGRFTISRDNAKNTVYLQMNSLKPEDTAVYYCAKQYGSYGRYYKYYYWGQGTQLTVSS | high polyreactivity
